Results as given in patent US20090191208A1 (INOTEK PHARMACEUTICALS, published 2009).

T1: Salmonella flagellin (Salmonella, UniProt P06177 2-505, limits assumed)
T1 sequence: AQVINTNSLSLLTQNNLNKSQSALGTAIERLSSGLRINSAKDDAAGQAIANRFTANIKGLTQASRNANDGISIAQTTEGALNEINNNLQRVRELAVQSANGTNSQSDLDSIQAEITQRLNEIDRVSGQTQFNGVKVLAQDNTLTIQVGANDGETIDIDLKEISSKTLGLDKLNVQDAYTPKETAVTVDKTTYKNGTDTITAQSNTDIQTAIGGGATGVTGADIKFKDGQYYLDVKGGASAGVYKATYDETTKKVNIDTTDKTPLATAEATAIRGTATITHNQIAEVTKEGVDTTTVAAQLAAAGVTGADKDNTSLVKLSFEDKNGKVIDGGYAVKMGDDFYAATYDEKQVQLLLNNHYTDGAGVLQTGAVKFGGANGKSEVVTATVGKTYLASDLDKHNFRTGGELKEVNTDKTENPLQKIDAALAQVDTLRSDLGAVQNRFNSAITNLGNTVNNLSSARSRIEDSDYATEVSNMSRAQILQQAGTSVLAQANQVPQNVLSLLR

T2: Pseudomonas flagellin (Pseudomonas, UniProt P21184 2-394)
T2 chain: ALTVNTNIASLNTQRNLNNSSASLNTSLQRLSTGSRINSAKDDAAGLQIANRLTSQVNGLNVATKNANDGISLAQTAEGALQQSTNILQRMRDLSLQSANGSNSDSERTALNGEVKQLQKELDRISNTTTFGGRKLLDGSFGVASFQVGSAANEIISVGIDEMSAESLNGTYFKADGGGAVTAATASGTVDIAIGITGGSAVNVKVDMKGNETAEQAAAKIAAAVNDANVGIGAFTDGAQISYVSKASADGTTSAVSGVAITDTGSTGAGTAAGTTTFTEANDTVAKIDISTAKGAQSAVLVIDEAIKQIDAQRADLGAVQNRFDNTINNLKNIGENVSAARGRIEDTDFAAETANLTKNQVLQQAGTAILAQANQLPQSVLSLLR

T3: recombinant SM flagellin protein (a/a 1-156) (Salmonella muenchen, UniProt P06177 1-156)
T3 construct: The antigen is amino acids 1-156 of S. muenchen flagellin, expressed in E. coli from pET 30C behind the His tag; also called recombinant S. muenchen flagellin; fusion protein; not shown: N-terminal His tag and vector-encoded residues of pET 30C
T3 sequence: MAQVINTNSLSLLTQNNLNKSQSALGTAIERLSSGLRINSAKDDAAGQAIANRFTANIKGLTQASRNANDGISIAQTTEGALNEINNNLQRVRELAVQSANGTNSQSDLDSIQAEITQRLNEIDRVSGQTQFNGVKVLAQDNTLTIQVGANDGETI

T4: Salmonella muenchen Flagellin (supplied by Inotek) (Salmonella muenchen, UniProt P06177 2-505)
T4 sequence: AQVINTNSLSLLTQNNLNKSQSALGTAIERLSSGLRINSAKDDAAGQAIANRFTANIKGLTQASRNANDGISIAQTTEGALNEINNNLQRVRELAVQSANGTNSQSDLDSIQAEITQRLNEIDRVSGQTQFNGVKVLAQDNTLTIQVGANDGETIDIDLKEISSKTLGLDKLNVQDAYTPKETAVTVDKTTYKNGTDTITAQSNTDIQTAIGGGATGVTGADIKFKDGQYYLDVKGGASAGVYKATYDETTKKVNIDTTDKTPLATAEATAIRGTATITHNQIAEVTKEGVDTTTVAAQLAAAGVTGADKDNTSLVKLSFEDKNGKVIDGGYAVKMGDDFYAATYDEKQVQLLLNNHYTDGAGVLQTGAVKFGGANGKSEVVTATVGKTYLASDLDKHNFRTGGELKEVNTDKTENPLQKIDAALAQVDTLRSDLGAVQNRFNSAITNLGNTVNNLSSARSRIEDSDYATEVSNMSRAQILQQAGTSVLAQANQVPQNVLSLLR


Legend:
Salmonella flagellin = target: T1, Salmonella flagellin; assay: BIACore (SPR); Salmonella flagellin
Pseudomonas flagellin = target: T2, Pseudomonas flagellin; assay: BIACore (SPR); Pseudomonas flagellin
[1] = target: T3, recombinant SM flagellin protein (a/a …); assay: ELISA of hybridoma supernatants for anti-SM flagellin reactivity
[2] = target: T4, Salmonella muenchen Flagellin (supplied …); assay: competition ELISA on plate-coated S. muenchen flagellin; competitor biotinylated mAb 741 at 0.6 µg/ml; mouse control antibody

Binder | Kd (Salmonella flagellin) [nM] | Kd (Pseudomonas flagellin) [nM] | binding result [1] | IC50 [2] [µg/mL]
human mAb 763 (antibody, V domains shown) VH: EVQLLESGGALVQPGGSLRLSCAASGFTFSSYAMSWARQAPGKGLEWLSGISGSADNTYYAESVKGRFTTSRDNSMNMLYLQMNSLRDEDTAFYYCAKGDQDRGPLEFWGQGTLVTVSS VL: SYELTQPPSVSVSPGQTARITCSGDALPKQYAYWYQQKPGQAPVLLIYQDTKRPSGIPERFSGSSSGTTVALTISGVQAEDEADYYCQSADSNDSYYVFGTGTKVTVL | ~0.1 | ~1000 | binds | 
murine mAb 741 (antibody, V domains shown, also called mouse control antibody) VH: QVQLQQSGAELVGPGASVTLSCKASGHTFTDYEMHWVKQTPVHGLEWIGGIDPETGGTAYNQKLKGEATLTADKSSNTAYMELRSLTSEDSAVYYCTIYLDYWGRGTTLTVSS VL: QIVLTQSPAIMSASPGEKVTMTCSANSSINYMHWYQQKPGTSPKRWIYDTTILASGVPARFSGSGSGTSYSLTISSMEAEDAATYYCHQRSSYPFTFGSGTKLEIK |  |  |  | 1.9
